Source: the supplement of paper PMC9170038

Test system: K4 kissing-loop RNA reporter
Assay: apparent KD of K4 kissing-loop reporter; higher = weaker reporter binding
Conditions: Eterna round: R107
Protocol: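 RNA-MaP round R107: designed RNA switches with theophylline, tryptophan, arginine or FMN aptamers are transcribed on-chip within common flanks. They are titrated with a labelled K4 kissing-loop RNA reporter in RNA-MaP buffer (100 mM Tris pH 7.5, 80 mM KCl, 4 mM MgCl2), without ligand or with the indicated ligand. Median apparent KD per design.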

[1] = input ligand: theophylline 20 uM
[2] = input ligand: tryptophan 2.4 mM
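Note: bound reporter read as fluorescence of individual clusters on recovered sequencing chips by microscopy, with normalized cluster intensities fitted with a binding model.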

Sequence	apparent KD of K4 kissing-loop reporter (input ligand: FMN 200 uM)	apparent KD of K4 kissing-loop reporter (input ligand: arginine 13.2 mM)	apparent KD of K4 kissing-loop reporter (input ligand: none)	apparent KD of K4 kissing-loop reporter [1]	apparent KD of K4 kissing-loop reporter [2]
UAUAUACAUUUAUUAAUUAAAGGUUCAGAAGGAGCGUGAAUUAACACAGGUAGGUCGCUGAGCGAGUGAUGUUCGCUAUAUGGUA [JR_ExcArginiA_Sub005]	66.3 nM	72.6 nM	70.5 nM	87.1 nM	55.7 nM
GGAGAGGUCUUGUUUGGAUGUGUUUAAUGGCGAGGACCGGUACGGCCGCCACUCGGGUGAUGUUAGUGAUGUUGAUGUUGUGAUG ['oo'mullin]	137 nM	131 nM	125 nM	219 nM	116 nM
GGUGCUGUCUGUGCCGCCCUCCUCGUCCCUCGAGGACCGGUACGGCCGCCACUCGAGUGAUGUUCGGGUAGCGAUCCCUGCUAGC [Bdazzled - #18 Exc. Tryptophan A]	275 nM	194 nM	246 nM	229 nM	256 nM
GGUUUAUAGGAGGAUACCAGUACAAAUAAAGUACAUUAAUAGUAGAGUGAUGUUCUAAAGUACCCUUGGCAGCUUAGAUUAAGUU [ExTheophylB.G]	92.6 nM	181 nM	111 nM	188 nM	76.4 nM
UCACGUGCCAGUGAUGUUGGCGUACGUGAUACCAGAACAAUAAAGUUCCCUUGGCAGCACAAAUAUGCCAAGUUAGAUGUAUGAU [Exclusion Theophylline A GF 3]	121 nM	118 nM	123 nM	119 nM	113 nM
UGACAUUGCUCAGAUACCAGACUUGAGGAACACCCAAGUGCCAAAUACGUACAAAUAAAAGUCCCUUGGCAGCUGAGCAAUGUCU [TheoBX 12]	58.3 nM	23.5 nM	48.5 nM	148 nM	38.5 nM
AAUAAGCGCGGAAGGAGCGCCGCCAGUGAUGUUGGGAGUUAGAUACCAGUGAUGUUGGGCCGGCAGGUAGGUCGCCGCAAAGCUU [Exclusion Arginine B Gf 14]	208 nM	86.5 nM	165 nM	137 nM	138 nM
UAGUCAUACAGAGGAUAUCGUAUGAGUGAUGUUCAAGUGCGUACAUCAACUUGAUGUACAGAUAGACGAGAAGGCUGUAUGACUA [FMB B SS t6]	303 nM	382 nM	487 nM	449 nM	492 nM
UAAUUGCAGUGAUGUUGCAAAUGUCCUGACUAGGAUAUCAGGAAACUGAGAAGGAGUCCCUUCUAUUGCAACAAGAAGGAGGAUA [KL-SSFMN-A14]	312 nM	300 nM	347 nM	338 nM	287 nM
AAAUUCUUUUUUUUAUUUAACUUUUCAGAAGGAGCGUGGUAGUUCACAGGUAGGUCGCUGAAUUUUGGACUAGUGAUGUUAGUUA [JR_SSArginiA_Sub006]	148 nM	214 nM	234 nM	216 nM	158 nM
GUGGGCUCGGGAGGAUAUGAGUCUAGUGAUGUUAGGCGGUCCAUGCGCGUGGCGCGUUAUGCCCUUUUAGAAGGCCCGAGCCCUC [#2 Exclusion - FMN B Attempt #24 (HarryS)]	99.8 nM	68.8 nM	90.1 nM	86.4 nM	85.3 nM
CUCGAGUGAUGUUCGAUUAUGUAUACAGAUACCAGUGAAUUUUAACACCCUUGGCAGCUGGUAGAAUCAUUUUAAUUUUAACUAG [JR_SSTheophyA_Sub021]	201 nM	256 nM	221 nM	268 nM	162 nM
ACGUAGUUCUAGGAUACCAGCCAAGGACGCCAGGACAAAAGUCCUGGCGCCAGUGAUGUUGGCCCUUGGCAGCCUAGAACUACGA [Omei KL Theo B Exc B v5]	197 nM	168 nM	182 nM	205 nM	176 nM
GGUGACAACCAGGAGUGAUGUAUAGAAUAGCGAGGACCGGUACGGCCGCCACUCGUGAAGAGAAAGGAGUGAUGUUCCGUAAUGG [Kazoo C3]	129 nM	126 nM	165 nM	74.2 nM	62.8 nM
UAUCAGAUUACUGAUACCAGUCUAAAGACAGUGAUGUUGUCUGAUCGACCACGAUCAAAGGACCCUUGGCAGCAGUGUACUAUUC [#29 K4 Theophylline B Same State]	197 nM	203 nM	192 nM	188 nM	199 nM
CCAGGAUGAUGAGGAUGAUGAAUUACUGAAGGAGCGCAUAUGGUUGCAGGUAGGUCGCGGUGAACAAGUAUAGUGAUGUUAUGCC [SSArgA.W]	575 nM	615 nM	795 nM	1160 nM	545 nM
GGUAUCCAGUACCAUUGCGUUAAAACAGAAGGAGCGAGUAUGGACUCAGGUAGGUCGCUGUUUAUAGUCGAGUGAUGUUCGAAUC [Same State Arginine A GF 15]	237 nM	280 nM	281 nM	316 nM	222 nM
CACGGUUAUACGGCCGCCACUGAUUGCGUUGCAGUGAUGUUGCACGCGUCCGACUACACCUCAUUCAGGACCGGGUAGACAUGCA [theeternabot_exclusion_KL_Trp_B_11]	238 nM	163 nM	230 nM	208 nM	246 nM
ACGAUUUACAGAAGGAGCGUGUAUUUAACUACAAUUAUCUUAGCGAGUGAUGUUCGUUUUACACAGGUAGGUCGCUGUAUAUCGA [JR_ExcArginiB_Sub011]	218 nM	303 nM	263 nM	374 nM	220 nM
AGUGAUAUAUGAGGAUAUGGGUUAAUUAGUGAGUGAUUUUUAGUGUUGUUUGAUUAGUGAUGUUAUUUAGAAGGCGUGAGUGAUG [mvvmjmullin]	123 nM	106 nM	81.9 nM	144 nM	79.4 nM
UGCUUAAUGGAAGGAUAUUAGGGUUCGACCGCGUAUCAUUGUUAGUCUGGCCAGUGAUGUUGGCCUUAAGAAGGUCCGCUACGGU [theeternabot_exclusion_KL_FMN_B_27]	207 nM	201 nM	171 nM	204 nM	130 nM
GUGCGGCUAGUGAUGUUGGUUGUGUGGGAAGGAGCGCAGAUACAUGCAGGUAGGUCGCCCACACCUCUGAAAGGAGGCUAAUUCA [KL-SSArg-A15]	418 nM	330 nM	411 nM	325 nM	350 nM

Sequence	apparent KD of K4 kissing-loop reporter (input ligand: FMN 200 uM)	apparent KD of K4 kissing-loop reporter (input ligand: arginine 13.2 mM)	apparent KD of K4 kissing-loop reporter (input ligand: none)	apparent KD of K4 kissing-loop reporter [1]	apparent KD of K4 kissing-loop reporter [2]
AUUCAGAUCUGAAGGAGCGCGUUGACAUAUUGCUUCAUUGAGCAGUGAUGUUGCUCAGUAACGCAGGUAGGUCGCAGAUCUGGCC [Arg B Ex t7a]	113 nM	110 nM	99 nM	92.3 nM	104 nM
AACUGUCAAGGCCGACAUUACUGAGGUGAUACCAGCAUCGAAAGAUGCCCUUGGCAGCACCAACUUGCAGUGAUGUUGCAAGUAA [BrourdMod 14 - Jieux - Exclusion - Theophylline A]	191 nM	158 nM	170 nM	198 nM	184 nM
CCCUAAAUAUGCAGUGAUGUUGCAACUGAUACCAGUAUCGAAAGAUACCCUUGGCAGCGGAAAACCGCUACGUAAUUUAAUAGGG [Ex Theophylline A K4 20]	294 nM	393 nM	387 nM	402 nM	285 nM
AUUUUUUUGUCAGGAUAUUAGUGUGCGUUUGGUUUGUUAGUGAUGUUGAUAUUUUGUUUAUGUAUUUAAGAAGGGAUUUAGCGGU [aaeatemullin]	534 nM	436 nM	501 nM	504 nM	349 nM
GGUGUUGUUUGUGCCGCCUUCCUCGUUCCUCGAGGACCGGUACGGCCGCCACUCGAGUGAUGUUUGGGUAGCGAUCCCUGUUAGU [Bdazzled - #11 Exc. Tryptophan A]	764 nM	573 nM	892 nM	638 nM	778 nM
GCCGUAGAUUGAAGGAGCGAGUAGGCUCACUUGCGAAGUGAAUAGCAGAGUGAUGUUCUGUCUCAGGUAGGUCGCAAUCUACGGC	701 nM	172 nM	388 nM	436 nM	397 nM
CCAUGAGGAUAAGAUGAUAUCAUAACAGAAGGAGCGAGUGAUAACUCAGGUAGGUCGCUGAAUUUAUCGAGUGAUGUUCGAUGAA [Same State Arginine A GF11]	194 nM	164 nM	193 nM	179 nM	164 nM
AGGUCCGAGCCCGCAAGGGCUCGGACCUGUUAGGAUAUGACGUUAUUCAGAAGGGAUGGGUGGAGUGAUGUUCCACCCGCGAGGG [#2 Same State - FMN A Attempt #12 (HarryS)]	132 nM	131 nM	202 nM	–	149 nM
CUGGGUUGACGAAAAGUCAACAAAAGAGAAGGAGCGCACGAAAGUGCAGGUAGGUCGCUCAAUCCAGUGAUGUUGGGUCGUCCAG [#OpenEnded 11 #K4Late]	279 nM	192 nM	284 nM	285 nM	222 nM
UGUAAGCGCGUAGAUACCAGCAAACAAAGAGUGAUGUUCAGAUUAAGGAAAAGAAAGUAAUGCCCUUGGCAGCUAAUCAUAAGCG [Theophylline B Exclusion; Euphoria Solution]	419 nM	409 nM	354 nM	497 nM	319 nM
AAACAACGUGACGAUACCAGCUUACUCGGCAAGCCAGUGAUGUUGGUGAAAAGGAGUCAAAGCCCUUGGCAGCGUCGAAGGUCUG [Georbeer]	332 nM	326 nM	427 nM	150 nM	325 nM
AGACUACCUACACUGUCAAUAGACAGUGACUAGGAUAUGCUGAUAAGCAGAAGGAGUGAUGUUCCUGGUAGUCAAAUAAAAUAAU [FmnAX 12 #SwitchBubble #StaticStem #K4Early]	498 nM	295 nM	311 nM	323 nM	278 nM
GGAGGGAUCUCGGCCGCCACUCAUAAGAAAUGAACCUCAGAAAUAUAGUGAUGUUAUAUAAAGAAGAGGACCGGGAGAAAGGAGG [ExTryptoB.B]	167 nM	137 nM	161 nM	158 nM	168 nM
UGUCAUGGAAACAUGAACGUUAAAAUAAAUCGAGGACCGGUACGGCCGCCACUCGUAUAGCGGUCAGUGAUGUUGACUGUAAUAA [KL-SSTryp-A form2 sub10]	101 nM	121 nM	110 nM	116 nM	94.3 nM
AUUAAUAACAGAGGAUAUGCAUUUUUAUUAUUUUUUAUUAUUAUAUGCAGUGAUGUUGCAUAUUAAGCAGAAGGCUGAUUUAUUU [JR_SSFMNB_Sub013]	117 nM	105 nM	79 nM	110 nM	102 nM
CCAAUCUGUUACGAUACCAGUCAAAGAUAUUUGAUCAAUACCCUCACCGAGUGAUGUUCGGACCCUUGGCAGCGUCUGGGAUAGG [ceevmullin]	228 nM	267 nM	266 nM	281 nM	193 nM
AGUGCACUGUCAGGAUAUAUACAGUGAUGUUGUGUAUGUCAGCAAGUCAAAGACUUGCUAUUUUGUGUAGAAGGGACUGUGUACA [whbob_Ex_FMNB__2th221]	385 nM	156 nM	176 nM	155 nM	177 nM
AGUGAUGUGGGAAGGAGCGGUAGAUGAGUUCAGUGAUGUUGAAGUGAUGCUGUAGUGAUGUGCCAGGUAGGUCGCCUAGAUGUUA [KL-XARG B24]	353 nM	162 nM	258 nM	130 nM	207 nM
UAGUGAAUAGAAGGAUAUUGAUAUGAAAGAUGCAGUGAUGUUGCCCGUAGCAGUCAGUAAUACGUGCAAGAAGGUCUGUGCGCGA [theeternabot_exclusion_KL_FMN_B_3]	65.2 nM	95.4 nM	69.2 nM	127 nM	62.4 nM
AAGUGAUGUUGUAGUGAUGUUGUGAUGUUGCAGGAUAUAUAGUGAUGUAGAAGGGUAUGUACUUAUUUUUUUUUUGAGUUUUGUU [xgghzrmullin]	82 nM	32.3 nM	60.2 nM	47.1 nM	68.3 nM
UGUCAUUGGUCGGCCGCCACUAGGACCGGGAUUUUUCUAGUGAUGUUAGUUUGGUCGGCCGCCACUAGGACCGGGACCGAUGACU [KL-SSTryp-B13 #DoubleAptamer]	638 nM	345 nM	644 nM	453 nM	86.8 nM
